Reference: patent US20230321183A1

Molecular target: OTi TCR on OT-I mouse T cells
Assay: cell-based or functional assay

Substance: FITC-conjugated tetramer H2Kb-SIINFEKL (from UniProt P01901 22-305) (peptide-MHC)
- cytotoxicity of human primary CD8 anti-FITC CAR T cells on OTi cells: > 50%
